Target: the molecule itself
Assay: SEC + AUC; 2 mL of 3 mg/mL purified PKM2 on Superdex 200 pg 16/600, 1 mL/min, UV 280 nm; peaks identified by analytical ultracentrifuge (results: sucrose gradient ultracentrifugation); monomer and tetramer fractions isolated

B1: recombinant PKM2 C424S (enzyme)
chain: not shown
notes: Pyruvate kinase M2 (PKM2) with C424S; likely made in E. coli like the wild type; also called rPKM2 protein with C424 mutation; source: purified (plasmid pET28a-PKM2 C424S)
stoichiometry N: 4
